Consider 167 variants from the Human Domainome abundance scans (Beltran et al. 2025).

± gives the uncertainty stated by the source.

First the molecules themselves.
B1: Membrane-associated guanylate kinase, WW and PDZ domain-containing protein 2, residues 601 to 682; numbered along this chain, Q86UL8 (parent)
chain: AELMTLTIVKGAQGFGFTIADSPTGQRVKQILDIQGCPGLCEGDLIVEINQQNVQNLSHTEVVDILKDCPIGSETSLIIHRG

This series covers variants of B1. The series is described as follows: abundance fitness (aPCA) (normalised: wild type 0, dead -1); higher = more abundant; growth selection in yeast, the domain comes from the species named. The settings on record: Homo sapiens.
With I71D, the abundance fitness was -0.101 ± 0.17. As to I71P, the abundance fitness is -0.052 ± 0.11. In the case of I71R, the abundance fitness was -0.082 ± 0.076. To I71M belongs -0.004 ± 0.099; to I71T, -0.038 ± 0.15; to I71E, -0.033 ± 0.11.

Regarding I71L, the abundance fitness is -0.099 ± 0.1. To I71K belongs -0.117 ± 0.24; to I71V, 0.006 ± 0.089; to I71G, 0.038 ± 0.074.

For the variant I71H, the abundance fitness was -0.18 ± 0.23. I71Q: the abundance fitness was -0.161 ± 0.096. On to I71F, for which the abundance fitness is -0.004 ± 0.21. With I71C, the abundance fitness was -0.101 ± 0.23. To I71A belongs -0.165 ± 0.1; to P70G, -0.185 ± 0.076; to P70H, -0.107 ± 0.11. For the variant P70R, the abundance fitness is -0.003 ± 0.067.

Consider P70A, for which the abundance fitness was -0.227 ± 0.099. To P70W belongs -0.087 ± 0.12. In the case of P70Q it was -0.084 ± 0.13; in that of P70M, -0.098 ± 0.12; in that of P70S, -0.001 ± 0.12. To P70E belongs 0.007 ± 0.082; to P70F, -0.074 ± 0.12.

For the variant P70T, the abundance fitness was -0.108 ± 0.12. For P70N, the abundance fitness was -0.089 ± 0.23. To P70K belongs -0.056 ± 0.24. To P70C belongs -0.315 ± 0.19; to P70L, -0.085 ± 0.11; to P70D, 0.077 ± 0.29.

In the case of V62Q, the abundance fitness was -0.336 ± 0.13. In the case of V62M it was -0.181 ± 0.12; in that of V62T, -0.03 ± 0.13.

Consider V62W, for which the abundance fitness was -1.03 ± 0.4. Turning to V62L, the abundance fitness is -0.114 ± 0.087.

As for V62H, the abundance fitness is -0.598 ± 0.35.

V62R: the abundance fitness was -0.91 ± 0.14.

L66V: the abundance fitness was -0.235 ± 0.13. To L66W belongs -0.521 ± 0.12; to L66Q, -0.557 ± 0.31; to L66R, -1.11 ± 0.24. Turning to L66E, the abundance fitness is -0.522 ± 0.33. To L66G belongs -0.673 ± 0.28; to L66A, -0.571 ± 0.12. To L66S belongs -0.63 ± 0.2; to L66F, 0.053 ± 0.18; to L66C, -0.398 ± 0.15. To L66T belongs -0.589 ± 0.47; to L66Y, -0.736 ± 0.45; to D68L, -0.138 ± 0.086. On to D68H, for which the abundance fitness is 0.222 ± 0.28.

Turning to D68V, the abundance fitness worked out at 0.046 ± 0.082. On to D68P, for which the abundance fitness was -0.233 ± 0.26.

Take D68M: the abundance fitness came out at 0.027 ± 0.15. In the case of D68R it was -0.136 ± 0.068. To D68Y belongs 0.011 ± 0.24; to D68W, -0.166 ± 0.15. To D68G belongs -0.057 ± 0.1; to D68K, 0.005 ± 0.13.

On to D68Q, for which the abundance fitness was found to be 0.07 ± 0.11. In the case of D68I it was -0.271 ± 0.18; in that of D68C, -0.101 ± 0.14. In the case of D68E it was -0.022 ± 0.088; in that of D68F, -0.304 ± 0.5. Take D68A: the abundance fitness is -0.14 ± 0.15. To D68T belongs -0.153 ± 0.095; to D64G, -0.059 ± 0.071. To D64L belongs -0.128 ± 0.087; to D64T, -0.126 ± 0.12; to D64K, 0.011 ± 0.16.

D64V: the abundance fitness is -0.06 ± 0.063. For the variant D64H, the abundance fitness was found to be 0.195 ± 0.3. In the case of D64S, the abundance fitness is 0.013 ± 0.085. In the case of D64P it was -0.202 ± 0.2; in that of D64A, -0.191 ± 0.09; in that of D64Y, 0.08 ± 0.19. In the case of D64F it was -0.112 ± 0.2. To D64N belongs -0.067 ± 0.3; to D64C, -0.238 ± 0.18; to D64M, -0.308 ± 0.14. Consider D64Q, for which the abundance fitness was -0.057 ± 0.11. In the case of D64I it was -0.183 ± 0.18; in that of D64W, -0.047 ± 0.1.

As for C69W, the abundance fitness was -0.25 ± 0.11.

C69Y: the abundance fitness is -0.174 ± 0.12.

For C69R, the abundance fitness is -0.08 ± 0.08.

As for C69L, the abundance fitness was -0.064 ± 0.11. Consider C69M, for which the abundance fitness was -0.102 ± 0.12. With C69K, the abundance fitness was determined as 0.108 ± 0.14. In the case of C69V it was -0.03 ± 0.065. To C69D belongs -0.27 ± 0.13; to C69E, -0.086 ± 0.094; to C69Q, -0.125 ± 0.13.

As for C69A, the abundance fitness is -0.029 ± 0.07. To C69G belongs -0.059 ± 0.061; to C69N, -0.195 ± 0.16. In the case of C69H, the abundance fitness was -0.329 ± 0.2. As to C69S, the abundance fitness is 0.177 ± 0.18. As to C69T, the abundance fitness came to 0.085 ± 0.11.

In the case of C69P, the abundance fitness is -0.421 ± 0.22. To G72S belongs 0.004 ± 0.083; to G72Y, -0.419 ± 0.24.

In the case of G72K, the abundance fitness is -0.139 ± 0.099.

Consider G72L, for which the abundance fitness was -0.003 ± 0.079. In the case of G72H it was -0.356 ± 0.28; in that of G72F, -0.353 ± 0.16; in that of G72M, 0.059 ± 0.089.

Turning to G72R, the abundance fitness is 0.006 ± 0.065. In the case of G72A it was 0.002 ± 0.061. In the case of G72P it was 0.022 ± 0.12; in that of G72D, 0.073 ± 0.089. Turning to G72Q, the abundance fitness was 0.003 ± 0.17.

For the variant G72E, the abundance fitness was -0.018 ± 0.097. In the case of G72C it was 0.046 ± 0.089. In the case of G72T it was -0.147 ± 0.092; in that of G72N, -0.189 ± 0.34; in that of G72W, -0.243 ± 0.1. Take I65Y: the abundance fitness is -0.047 ± 0.063.

Turning to I65C, the abundance fitness was -0.053 ± 0.063.

With I65R, the abundance fitness is -0.064 ± 0.034.

As for I65K, the abundance fitness was -0.069 ± 0.057. To I65M belongs -0.051 ± 0.05; to I65L, -0.072 ± 0.037; to I65S, -0.059 ± 0.04. To I65A belongs -0.048 ± 0.037; to I65H, -0.242 ± 0.093; to I65T, -0.038 ± 0.048. For the variant I65V, the abundance fitness worked out at 0.006 ± 0.037. In the case of I65P it was -1.32 ± 0.22; in that of I65Q, -0.079 ± 0.047. In the case of I65D it was -0.542 ± 0.13; in that of I65G, -0.295 ± 0.038; in that of I65F, -0.088 ± 0.074. In the case of I65E it was -0.146 ± 0.052; in that of I65N, -0.256 ± 0.087. Take V63K: the abundance fitness was -0.095 ± 0.21. In the case of V63F it was -0.432 ± 0.38; in that of V63H, -0.493 ± 0.21; in that of V63C, -0.192 ± 0.15.

On to V63W, for which the abundance fitness was -0.017 ± 0.11. To V63G belongs -0.067 ± 0.074; to V63D, 0.145 ± 0.41. Consider V63S, for which the abundance fitness was -0.099 ± 0.13. V63L: the abundance fitness was -0.278 ± 0.2. In the case of V63E it was -0.028 ± 0.12; in that of V63Q, -0.087 ± 0.23; in that of V63A, 0.001 ± 0.067. In the case of V63R it was -0.072 ± 0.068; in that of V63M, 0.041 ± 0.11; in that of K67G, 0.052 ± 0.093. To K67A belongs -0.072 ± 0.083; to K67Y, -0.226 ± 0.14. In the case of K67W, the abundance fitness was -0.224 ± 0.24. In the case of K67I, the abundance fitness was -0.324 ± 0.13. To K67E belongs -0.034 ± 0.17; to K67V, -0.112 ± 0.14. Consider K67C, for which the abundance fitness was -0.117 ± 0.11. To K67Q belongs -0.145 ± 0.13. Turning to K67S, the abundance fitness came out at 0.004 ± 0.083. In the case of K67R it was 0.034 ± 0.089.

On to K67N, for which the abundance fitness was -0.022 ± 0.18.

Take K67M: the abundance fitness is -0.003 ± 0.1. In the case of K67L it was -0.083 ± 0.097; in that of K67H, -0.23 ± 0.21. To K67T belongs 0.093 ± 0.11; to K67F, -0.062 ± 0.31.
